Results published in patent publication US20060024313A1 (published 2006).

Target: the molecule itself
Assay: velocity AUC in PBS (self-association)

B1: DPP-IV H750E mutant (enzyme, human, UniProt P27487 39-766, looked up)
chain: SRKTYTLTDYLKNTYRLKLYSLRWISDHEYLYKQENNILVFNAEYGNSSVFLENSTFDEFGHSINDYSISPDGQFILLEYNYVKQWRHSYTASYDIYDLNKRQLITEERIPNNTQWVTWSPVGHKLAYVWNNDIYVKIEPNLPSYRITWTGKEDIIYNGITDWVYEEEVFSAYSALWWSPNGTFLAYAQFNDTEVPLIEYSFYSDESLQYPKTVRVPYPKAGAVNPTVKFFVVNTDSLSSVTNATSIQITAPASMLIGDHYLCDVTWATQERISLQWLRRIQNYSVMDICDYDESSGRWNCLVARQHIEMSTTGWVGRFRPSEPHFTLDGNSFYKIISNEEGYRHICYFQIDKKDCTFITKGTWEVIGIEALTSDYLYYISNEYKGMPGGRNLYKIQLSDYTKVTCLSCELNPERCQYYSVSFSKEAKYYQLRCSGPGLPLYTLHSSVNDKGLRVLEDNSALDKMLQNVQMPSKKLDFIILNETKFWYQMILPPHFDKSKKYPLLLDVYAGPCSQKADTVFRLNWATYLASTENIIVASFDGRGSGYQGDKIMHAINRRLGTFEVEDQIEAARQFSKMGFVDNKRIAIWGWSYGGYVTSMVLGSGSGVFKCGIAVAPVSRWEYYDSVYTERYMGLPTPEDNLDHYRNSTVMSRAENFKQVEYLLIHGTADDNVHFQQSAQISKALVDVGVDFQAMWYTDEDHGIASSTAHQEIYTHMSHFIKQCFSLP
notes: range 39-766; Monomeric by AUC
  binding result: no binding (tested: 0.1 to 0.2 mg/ml (1.2 uM to 2.3 uM))
